Results on one molecule are retold here after publication PMC2925389.

The target in series [1] is T1, yPolη truncated (catalytic core) (Saccharomyces cerevisiae, UniProt Q04049 1-513).
T1 sequence: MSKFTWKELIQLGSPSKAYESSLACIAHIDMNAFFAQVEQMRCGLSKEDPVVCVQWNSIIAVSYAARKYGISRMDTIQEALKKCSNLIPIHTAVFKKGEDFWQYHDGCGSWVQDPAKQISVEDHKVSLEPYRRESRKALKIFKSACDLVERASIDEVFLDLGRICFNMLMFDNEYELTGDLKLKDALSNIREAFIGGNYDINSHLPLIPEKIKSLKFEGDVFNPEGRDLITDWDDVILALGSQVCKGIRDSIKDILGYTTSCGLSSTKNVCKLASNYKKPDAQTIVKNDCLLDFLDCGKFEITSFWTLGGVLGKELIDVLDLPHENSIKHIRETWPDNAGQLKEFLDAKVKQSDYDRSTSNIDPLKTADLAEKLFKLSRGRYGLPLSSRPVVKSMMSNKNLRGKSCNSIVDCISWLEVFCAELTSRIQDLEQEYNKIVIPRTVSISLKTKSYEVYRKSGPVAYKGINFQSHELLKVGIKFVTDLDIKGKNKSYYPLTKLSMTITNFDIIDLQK
Nature of the series: EMSA; koff 0.008 ± 0.001 s-1 (DNA trap); 23°C, buffer A (composition not in material; without BSA for fluorescence); EMSA 10 nM DNA, 10-450 nM protein, 20 min, 4.5% native gel, 40 mM Tris in running bu.

In a further series the target is T2, yPolη full-length (Saccharomyces cerevisiae, UniProt Q04049 1-632).
T2 sequence: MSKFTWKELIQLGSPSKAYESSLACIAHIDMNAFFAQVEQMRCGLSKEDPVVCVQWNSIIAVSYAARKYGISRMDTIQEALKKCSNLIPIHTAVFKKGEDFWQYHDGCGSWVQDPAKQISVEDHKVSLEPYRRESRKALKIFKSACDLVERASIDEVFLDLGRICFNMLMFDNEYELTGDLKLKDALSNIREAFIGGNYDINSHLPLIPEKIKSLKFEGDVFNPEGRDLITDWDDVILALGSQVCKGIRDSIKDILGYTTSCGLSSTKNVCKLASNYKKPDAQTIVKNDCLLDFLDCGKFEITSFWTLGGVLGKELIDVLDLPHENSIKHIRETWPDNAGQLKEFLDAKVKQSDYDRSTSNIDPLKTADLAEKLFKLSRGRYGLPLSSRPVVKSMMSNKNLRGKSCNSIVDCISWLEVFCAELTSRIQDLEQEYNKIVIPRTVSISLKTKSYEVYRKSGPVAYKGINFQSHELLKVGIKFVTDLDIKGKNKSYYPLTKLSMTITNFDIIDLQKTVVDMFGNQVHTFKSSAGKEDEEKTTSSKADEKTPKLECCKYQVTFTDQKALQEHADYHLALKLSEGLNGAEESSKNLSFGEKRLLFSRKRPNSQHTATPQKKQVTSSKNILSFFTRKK
Kind of series: EMSA; koff 0.0041 ± 0.0008 s-1 (DNA trap); 23°C, buffer A (composition not in material; without BSA for fluorescence); EMSA 10 nM DNA, 10-450 nM protein, 20 min, 4.5% native gel, 40 mM Tris in running bu.

B1: D-1 21/41-mer (dsDNA)
DNA 1: CGCAGCCGTCCAACCAACTCA
DNA 2: GGACGGCATTGGATCGACGATGAGTTGGTTGGACGGCTGCG
With B1, the results for the Kd (in series [1]; with yPolη full-length) were 34 ± 3 nM and 16 ± 1 nM, respectively.
